The Human Domainome abundance scans (Beltran et al. 2025)

B1: LIM and senescent cell antigen-like-containing domain protein 2, residues 13 to 71; numbered along this chain, Q7Z4I7 (parent)
chain: AVCQRCQARFSPAERIVNSNGELYHEHCFVCAQCFRPFPEGLFYEFEGRKYCEHDFQML
B2: Chromodomain-helicase-DNA-binding protein 4, residues 623 to 675; numbered along this chain, Q14839 (parent)
chain: MIHRILNHSVDKKGHVHYLIKWRDLPYDQASWESEDVEIQDYDLFKQSYWNHR

Variants of: B1
Experiment: abundance fitness (aPCA) (normalised: wild type 0, dead -1); higher = more abundant; growth selection in yeast, the domain comes from the species named
Details: Homo sapiens

Abundance fitness: each site, then its substitutions
E45: V -0.061 | L -0.039
E40: V -0.266 | Y -0.212 | W -0.31 | T -0.15
Y51: M 0.088 | G -0.922 | W -0.426 | N -0.877 | V 0.014 | P -0.729 | Q -0.785 | H -0.743 | K -0.276 | E -0.604 | A -0.754 | D -0.452 | I -0.283 | L 0.186 | C -0.298 | F -0.053 | T -0.702
M58: F 0.154 | P -0.06 | W -0.055 | H -0.052 | C 0.043 | E 0.061 | R 0.066 | K 0.043 | Y -0.309 | T 0.123 | G 0.223 | Q 0.013 | D -0.106 | N 0.132 | L 0.04 | V 0.007 | A -0.004
K50: A -0.2 | D -0.473 | S -0.216 | G -0.212 | E -0.263 | F -0.3 | R -0.05 | M 0.168 | N 0.185 | V -0.091 | T -0.047 | L 0.005 | H -0.225 | Q -0.032 | Y -0.104 | W -0.191 | P -0.177
F46: E -0.286 | L 0.029 | P -0.902 | A -0.039 | R -0.271 | M -0.241 | G -0.465 | I -0.446 | K -0.173 | D -0.217 | N -0.202 | V -0.05 | C -0.127 | H 0.114 | W 0.014 | Q -0.272
C52: F -0.882 | T -0.952 | P -0.949 | R -0.839 | D -0.622 | Q -0.597 | I -0.918 | Y -0.49 | N -0.269 | E -0.719 | M -0.673 | L -0.817 | H -0.486 | W -1.14 | V -0.93 | S -0.798 | A -1 | G -0.731
Q57: W -0.28 | K 0.006 | H 0.056 | T -0.121 | Y -0.586 | E -0.052 | S -0.145 | N 0.062 | R 0.107 | L -0.331 | C -0.352 | D -0.264 | F -0.346 | V -0.156 | G 0.118 | A -0.077 | I -0.295
F56: A -0.316 | S -0.105 | K -0.757 | L -0.091 | W -0.364 | E -0.648 | T -0.114 | R -0.361
L42: A 0.02 | I 0.112 | P -0.357 | G -0.108 | Q -0.092 | E 0.083 | S -0.064 | M 0.045 | N -0.012 | D -0.023 | W -0.302 | K 0.047 | H -0.198 | V -0.026 | C -0.062 | F -0.301 | R 0.006 | T 0.07
G48: N 0.114 | V -0.775 | R -0.083 | C -0.224 | E -0.062 | H -0.411 | A -0.201 | S -0.021 | P -0.686 | W -0.838 | M -0.398 | K -0.067 | Q -0.238 | T -0.15 | I -0.789 | Y -0.451 | D -0.03
F43: I -0.263 | D -0.69 | A -0.143 | T -0.014 | V -0.132 | S -0.103 | N -0.387 | R -0.37 | P -0.042 | M -0.206 | Q 0.103 | H -0.204 | K -0.365 | L -0.161 | Y 0.059 | E -0.522 | C -0.223
L59: C -0.033 | R -0.123 | G 0.183 | T -0.141 | N -0.676 | I 0.099 | Q -0.069 | F -0.616 | E -0.373 | S -0.312 | V 0.036 | A 0.035 | Y -0.204 | P -0.235 | W -0.348
Y44: E -0.086 | Q -0.019 | F 0.002 | A -0.404 | C -0.009 | T -0.253 | L -0.247 | R -0.033 | I -0.046 | S -0.342 | M -0.114 | K -0.03 | W -0.145 | H 0.024 | G -0.324 | D -0.259 | P -0.941 | N 0.088
R49: L -0.169 | T -0.066 | K 0.029 | A -0.057 | V -0.123 | C -0.011 | N -0.482 | I -0.101 | M -0.102 | E -0.205 | Y -0.328 | F -0.245 | G -0.257 | D -0.413
G41: R -0.084 | W -0.253 | K -0.305 | A -0.238 | E -0.612 | Y -0.532 | N 0.021 | V -0.613 | H -0.338 | L -0.394 | M -0.271 | C -0.205 | I -0.733 | S -0.228 | P -0.518 | Q 0.096 | T -0.268 | F -0.481
D55: K -0.918 | T -0.651 | V -0.964 | S -0.667 | G -0.636 | L -0.933 | W -0.815 | H 0.018 | N -0.606 | P -0.839 | Q -0.753 | Y -0.814 | F -1.14 | M -1.24 | I -0.921 | R -0.747 | E -0.456
E53: P -0.359 | A -0.216 | C -0.38 | L -0.207 | K -0.21 | I -0.147 | N 0.01 | G -0.25 | W -0.186 | F -0.064 | T -0.235 | M -0.286 | V -0.39 | H 0.061 | R -0.027 | D 0.169
H54: K 0.117 | E 0.189 | A 0.064 | S 0.094 | V 0.036 | N 0.137 | Q 0.045 | Y -0.061 | C 0.074 | R 0.108 | F -0.01 | I 0.14 | W -0.157 | T 0.235 | L -0.017 | P 0.034 | G 0.027
E47: K -0.274 | W -0.49 | G -0.062 | F -0.585 | N -0.335 | Y -0.453 | R -0.154 | P -0.773 | Q -0.204 | V -0.138 | C -0.247 | L -0.243 | D -0.083 | M -0.222 | A -0.129 | S -0.364 | T -0.434 | H 0.022

Variants of: B2
Experiment: as above
Details: Homo sapiens

Abundance fitness, by site and new letter:
I2: G -0.802 | L -0.879 | H -0.673 | V -0.589 | N -0.751 | Y -0.882 | C -0.662 | M -0.761 | S -0.708 | T -0.686 | A -0.978 | Q -0.931 | K -0.82 | W -0.856 | R -0.734 | E -0.54 | F -0.945
M1: F -0.004 | S -0.23 | T -0.117 | Q -0.689 | R -0.265 | N 0.277 | H -0.462 | G -0.046 | D -0.452 | V -0.015 | L -0.324 | I 0.148 | Y 0.226 | K 0.112 | C -0.25
H3: A -0.086
